Results reported in patent US20220339279A1, “RECOMBINANT PROTEINS, COMPOSITIONS, VECTORS, KITS, AND METHODS FOR […], AND TESTING FOR EXPOSURE TO, SEVERE ACUTE RESPIRATORY SYNDROME CORONAVIRUS 2” (Board of Regents of the University of Nebraska, priority 2021, published 2022).
pKd: −log10 of the molar value.

Key:
[1] = target: hACE2 on human bronchial epithelial Calu-3 cells (human) (UniProt Q9BYF1)
[2] = target: recombinant hACE2-AviTag protein from 293T cells (Acro Biosystems) (human) (UniProt Q9BYF1); assay: SPR, hACE2-AviTag captured on chip, spike construct as analyte

In the case of “S-Ecto-eGFP (other; other documents disagree on this pair)”, the fold median GFP fluorescence intensity (MFI) over GFP-His tag control [1] was 2.6 fold and the pKd [2] was 7.26.
